Results on 17 molecules are retold here after patent publication US20210139605A1 (AGENCY FOR SCIENCE TECHNOLOGY AND RESEARCH, published 2021).

For orientation: koff means the rate constant with which the complex falls apart.

In the test the target is T1, human HER-2 protein (soluble / recombinant, used in SPR) (human, UniProt P04626 23-652).
T1 construct: also called immobilized HER2 protein; recombinant HER-2
In words: SPR, immobilized HER2 protein. For orientation: SPR reads the build-up and loss of mass on a sensor chip optically.

Where a chain is given by its changes, count along the chain named.

B1: PFG4 Fab (Fab, V domains shown)
VH: QVQLQQSGAEVKKPGSSVKVSCKASGGTFSSYAISWVRQAPGQGLEWMGGIIPIFGTANYAQKFQGRVTITADKSTSTAYMELSSLRSEDTAVYYCARGADWNSDYWGQGTLVTVSS
VL: QSVLTQPPSVSKALRQTATLTCTGNNNNVGFAGAAWFLQHQGHPPKLLAYRNNDRPSGISERFSASRSGNTASLTITGLQPEDEADYYCSAWDSSLKVQVFGGGTKLTVLG
notes: Printed entries run through CL and CH1 (Fab chains); Label G4 tied to PFG4 by inference
On to B1, for which the koff worked out at 0.00063 s⁻¹.

B2: PFA1 Fab (Fab, V domains shown)
VH: EVQLVQSGGGVVQPGRSLRLSCAASGFTFSSYGMHWVRQAPGKGLEWVAVISYDGSNKYYADSVKGRFTISRDNSKNTLFLQMNSLRAEDTAVYYCARDLFAVVGYYYYYGMDVWGQGTTVTVSS
VL: EIVLTQSPFSLPVTPGEPASISCRSSQSLLHSNGFNYLDWYLQKPGQSPQLLIYLGSNRASGVPDRFSGSGSGTDFTLKISRVEAEDVGVYYCMQGLQTPYTFGQGTKLEIKR
notes: Entries are labelled light/heavy chain VD but as printed run through CL and CH1 (Fab chains); Label A1 tied to PFA1 by inference
For B2, the koff turned out to be 0.00415 s⁻¹.

B3: PFF3 Fab (Fab, V domains shown)
VH: QVQLVQSGGGLVQPGGSLRLSCSASGFTFSSYAIHWVRQAPGKGLEYVSAISSNGGSTYYADSVKGRFTISRDNSKNTLYLQMNSLRAEDTAVYYCARVYGYGLHYYGMDVWGQGTTVTVSS
VL: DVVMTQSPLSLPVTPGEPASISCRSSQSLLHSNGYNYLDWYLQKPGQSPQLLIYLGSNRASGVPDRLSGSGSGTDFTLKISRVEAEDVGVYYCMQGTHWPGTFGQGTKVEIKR
notes: Printed entries run through CL and CH1 (Fab chains); Label F3 tied to PFF3 by inference
Turning to B3, the koff was determined as 0.00324 s⁻¹.

B4: PFG1 Fab (Fab, V domains shown)
VH: EVQLVQSGGGVVQPGRSLRLSCAASGFTFSSYGMHWVRQAPGKGLEWVAVIWYDGSNKYYADSVKGRFTISRDNSKNTLYLQMNSLRAEDTAVYYCATMTTEDYWGQGTLVTVSS
VL: QAVLTQPSSLSASPGASASLTCTLRSGINVGTYRIYWYQQKPGSPPQYLLRYKSDSDKQQGSGVPSRFSGSKDASANAGILLISGLQSEDEADYYCMIWHSSAWVFGGGTKLTVLG
notes: Printed entries run through CL and CH1 (Fab chains); Label G1 tied to PFG1 by inference
For B4, the koff came out at 0.000324 s⁻¹.

B5: PFG2 Fab (Fab, V domains shown)
VH: EVQLVQSGGGLVQPGGSLRLSCAASGFTFSSYAMSWVRQAPGKGLEWVSSISSSSSYIYYADSVKGRFTISRDNAKNSLYLQMNSLRAEDTAVYYCARDGSAWSRPYWGQGTLVTVSS
VL: EIVLTQSPATLSLSPGERATLSCRASQSVSSYLAWYQQKPGQAPRLLIYDASNRATGIPARFSGSGSGTDFTLTISSLEPEDFAVYYCQQRSNWPLTFGGGTKVEIKR
notes: Printed entries run through CL and CH1 (Fab chains); Label G2 tied to PFG2 by inference
B5: the koff came to 0.000499 s⁻¹.

B6: clone C5 Fab (P1C5, from the phage display Fab library) (Fab, V domains shown)
VH: QVQLQESGPGLVKPSETLSLTCTVSGGSISSSSYYWGWIRQPPGKGLEWIGSIYYSGSTYYNPSLKSRVTISVDTSKNQFSLKLSSVTAADTAVYYCARYAPDSSGYLVAFDIWGQGTMVTVSS
VL: QTVVTQEPSFSVSPGGTVTLTCGLSSGSVSTGYYPSWYQQTPGQAPRTLIYSTNSRSSGVPDRFSGSILGNKAALTITGAQADDESDYYCVLYMGSGISVFGGGTKLTVLG
Take B6: the koff came to 0.00448 s⁻¹.

B7: PFD3 Fab (Fab, V domains shown)
VH: EVQLVQSGAEVKKPGESLKISCKGSGYSFTSYWIGWVRQMPGKGLEWMGIIYPGDSDTRYSPSFQGQVTISADKSISTAYLQWSSLKASDTAMYYCARLGYGVPLPEYFDLWGRGTLVTVSS
VL: B6 VL with T2A, T5I, G23A, S25T, G32S, A45P, S55L, V91E, L107V
notes: Printed entries run through CL and CH1 (Fab chains); Label D3 tied to PFD3 by inference
Take B7: the koff stood at 0.0272 s⁻¹.

B8: clone F1 Fab (P1F1, from the phage display Fab library) (Fab, V domains shown)
VH: QVQLVESGPGLVKPSGTLSLTCAVSGGSISSSNWWSWVRQPPGKGLEWIGEIYHSGSTNYNPSLKSRVTISVDTSKNQFSLKLSSVTAADTAVYYCARMGANSGGYLYGMDVWGQGTTVTVSS
VL: B6 VL with G32S, S55T, S99W
As to B8, the koff was found to be 0.00502 s⁻¹.

B9: clone E4 Fab (P1E4, from the phage display Fab library) (Fab, V domains shown)
VH: QVQLQQWGAGLLKPSETLSLTCAVYGGSFSGYYWSWIRQPPGKGLEWIGEINHSGSTNYNPSLKSRVTISVDTSKNQFSLKLSSVTTADTAVYYCARMGINSGGYLYGMDVWGQGTTVTVSS
VL: B6 VL with G32S, T41I, S52T, S55I, S65G, D83E, V91M, S99W
Turning to B9, the koff is 0.00181 s⁻¹.

B10: PFD2 Fab (Fab, V domains shown)
VH: QVQLQQWGAGLLKPSETLSLTCAVYGGSFSGYYWSWIRQPPGKGLEWIGEINHSGSTNYNPSLKSRVTISVDTSKNQFSLKLSSVTAADTAVYYCARGLPYYYFDYWGQGTLVTVSS
VL: QSVVTQPPSVSGAPGQRVTISCTGRSANIGGFDVQWYRQLPGTAPQLLIYDNSNRPSGVPDRFSGSKSGTSATLAISGLQTGDEADYYCGTWDSYLNIWVFGGGTKLTVLS
notes: Printed entries run through CL and CH1 (Fab chains); Label D2 tied to PFD2 by inference
In the case of B10, the koff was 0.00486 s⁻¹.

B11: PFD4 Fab (Fab, V domains shown)
VH: QVQLVQSGGGLVQPGGSLRLSCSASGFTFSSYAMHWVRQAPGKGLEYVSAISSNGGSTYYADSVKGRFTISRDNSKNTLYLQMSSLRAEDTAVYYCARSRGYYGMDVWGQGTTVTVSS
VL: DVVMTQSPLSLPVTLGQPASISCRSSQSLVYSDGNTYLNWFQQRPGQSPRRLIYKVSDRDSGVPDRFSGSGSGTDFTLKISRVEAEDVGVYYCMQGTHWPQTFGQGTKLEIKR
notes: Printed entries run through CL and CH1 (Fab chains); Label D4 tied to PFD4 by inference
For the molecule B11, the koff was determined as 0.0342 s⁻¹.

B12: PFA2 Fab (Fab, V domains shown)
VH: QVQLQQSGPGLVKPSQTLSLTCAISGESVSSAAAAWNWIRQSPSRGLEWLGRTYYRSKWYSEYAVSVKSRITINGDTSKNQVSLHLNAVTPEDTAIYYCVRGSIFDVWGQGTMVTVSS
VL: EIVLTQSPLSLPVTPGEPASISCRSSQSLLHSDGNKYLDWYLQKPGQSPQLLIYLGSNRASGVPERFSGSGSGTDFTLKISRVEAEDVGVYYCMLGTHWPPMYIFGQGTKLEIKR
notes: Printed entries run through CL and CH1 (Fab chains); Label A2 tied to PFA2 by inference
For B12, the koff came out at 0.00218 s⁻¹.

B13: PFF2 Fab (Fab, V domains shown)
VH: QMQLVQSGGGVVQPGRSLRLSCAASGFSFKNYGMHWVRQAPGKGLEWVAFISYDGTNKYYADSVKGRFTISRDNSKNTLYLQMNSLRAEDTAVYYCAKHYGDYYYYYGMDVWGQGTTVTVSS
VL: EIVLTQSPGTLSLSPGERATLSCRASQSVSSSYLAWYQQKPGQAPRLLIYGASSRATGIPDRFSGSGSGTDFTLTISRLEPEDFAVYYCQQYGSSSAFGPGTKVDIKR
notes: Printed entries run through CL and CH1 (Fab chains); Label F2 tied to PFF2 by inference
For the molecule B13, the koff amounted to 0.0047 s⁻¹.

B14: PFE2 Fab (Fab, V domains shown)
VH: EVQLVQSGGGVVQPGRSLRLSCAASGFTFSSYAMHWVRQAPGKGLEWVAVISYDESNKYYADSVKGRFTISRDNSKNTLYLQMNSLRAEDTAVYYCAREPSGSWSYLYYYYYGMDVWGQGTTVTVSS
VL: DVVMTQSPLSLPVTPGEPASISCRSSQSLLRSDGYNFVDWYLQKAGQSPQLLIHLGSDRASGVPDRFSGSGSGTDFTLRISRVEAEDVGVYYCMQALQTPRTFGQGTKVEIKR
notes: Printed entries run through CL and CH1 (Fab chains); Label E2 tied to PFE2 by inference
Consider B14, for which the koff turned out to be 0.0187 s⁻¹.

B15: clone A3 Fab (P1A3, from the phage display Fab library) (Fab, V domains shown)
VH: EVQLVQSGTEVKKPGASVRVSCKSSGYTFTSYYIHWVRQAPGQGLEWMAIINPGNGDTNYAQRFQGRVTMTRDTSTSTVYMELRSLRSDDTAVYFCAREIASYSGSYYDYWGQGTLVTVSS
VL: QAVVTQEPSLSVSPGGTVTLTCGLSSGSVSTGHYASWYQQTPGQAPRTLFYNTNTRSSGVPDRFSGSIVGNKAALTITGAQADDESDYYCVLYVGDGIWVFGGGTKLTVLG
In the case of B15, the koff stood at 0.00416 s⁻¹.

B16: PFD1 Fab (Fab, V domains shown)
VH: EVQLVQSGGGVVQPGRSLRLSCAASGFTFSSYGMHWVRQAPGKGLEWVAVISYDGSNKYYADSVKGRFTISRDNAKNSLYLQMNSLRAEDTAVYYCARSRGYSGYDNWGQGTLVTVSS
VL: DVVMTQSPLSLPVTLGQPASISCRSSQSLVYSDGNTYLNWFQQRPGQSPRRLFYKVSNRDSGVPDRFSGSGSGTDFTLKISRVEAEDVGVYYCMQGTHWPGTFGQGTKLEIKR
notes: Printed entries run through CL and CH1 (Fab chains); Label D1 tied to PFD1 by inference
With B16, the koff stood at 0.0714 s⁻¹.

B17: PFE5 Fab (Fab, V domains shown)
VH: B16 VH with G33A, A75S, S78T, S103Y, Y105M, N107V, L113T
VL: DIQMTQSPSSLSASVGDRVTITCRASQGISSWLAWYQQKPGKAPKLLIYAASSLQSGVPSRFSGSGSGTDFTLTISSLQPEDFATYYCQQANSFPPTFGPGTKVDIKR
notes: Printed entries run through CL and CH1 (Fab chains); Label E5 tied to PFE5 by inference
Take B17: the koff turned out to be 0.00152 s⁻¹.
